Sequences and labels used below:
T1: recombinant human CD123-Fc (human, UniProt P26951 19-305)
T1 construct: not shown: Fc part of CD123-Fc
T1 sequence: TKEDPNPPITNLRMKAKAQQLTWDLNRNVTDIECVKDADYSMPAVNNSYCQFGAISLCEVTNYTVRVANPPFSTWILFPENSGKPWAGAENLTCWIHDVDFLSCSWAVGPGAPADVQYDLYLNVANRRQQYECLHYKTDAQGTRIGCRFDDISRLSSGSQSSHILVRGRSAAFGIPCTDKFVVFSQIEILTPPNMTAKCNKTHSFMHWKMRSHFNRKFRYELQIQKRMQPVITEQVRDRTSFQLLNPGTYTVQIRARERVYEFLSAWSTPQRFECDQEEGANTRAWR

T2: AFP p26 (human, UniProt P02771 381-609)
T2 construct: The construct used is not described
T2 sequence: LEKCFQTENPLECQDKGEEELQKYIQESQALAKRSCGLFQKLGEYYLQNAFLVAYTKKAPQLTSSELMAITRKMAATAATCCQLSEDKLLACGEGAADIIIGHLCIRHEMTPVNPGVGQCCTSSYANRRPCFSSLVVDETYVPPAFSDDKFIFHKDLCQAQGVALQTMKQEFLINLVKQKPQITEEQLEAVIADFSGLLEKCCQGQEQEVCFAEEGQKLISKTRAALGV

B1: SEQ ID NO 627 (designed binder)
chain: MGSWYEFEQRLGAIEERLWALGGSEAELAAFEDIIAYFEYQLQSYKGKGNPEVEALDEEAWAIDDELWAYRHN
B2: SEQ ID NO 871 (designed binder)
chain: MGSWHSFKQDLAYIKYLLEALGGSEAELAQFEELIAFFEYYLQTYKGKGNPEVEALRKEAAAIRDELQAYRHN
B3: SEQ ID NO 845 (designed binder)
chain: MGSWYLFKTELAAIKYRLEALGGSEAELASFEYEIAWFEHILQFYKGKGNPEVEALRKEAAAIRDELQAYRHN
B4: SEQ ID NO 855 (designed binder)
chain: MGSWTHFKEDLAHIKDRLEALGGSEAELAAFELDIAWFEFMLQYYKGKGNPEVEALRKEAAAIRDELQAYRHN
B5: SEQ ID NO 857 (designed binder)
chain: MGSWYTFKGSLAEIKNRLEALGGSEAELAMFESDIAWFEFMLQFYKGKGNPEVEALRKEAAAIRDELQAYRHN
B6: SEQ ID NO 865 (designed binder)
chain: MGSWSVFKDDLAQIKDRLEALGGSEAELAQFELDIAWFEYVLQFYKGKGNPEVEALRKEAAAIRDELQAYRHN
B7: SEQ ID NO 863 (designed binder)
chain: MGSWEIFKDDLASIKKVLEALGGSEAELALFESDIAWFELMLQYYKGKGNPEVEALRKEAAAIRDELQAYRHN
B8: SEQ ID NO 850 (designed binder)
chain: MGSWIIFKTDLARIKNYLEALGGSEAELATFERDIAWFEFMLQIYKGKGNPEVEALRKEAAAIRDELQAYRHN
B9: SEQ ID NO 862 (designed binder)
chain: MGSWSIFKQDLADIKDSLEALGGSEAELAMFEMDIAWFEHTLQYYKGKGNPEVEALRKEAAAIRDELQAYRHN
B10: SEQ ID NO 858 (designed binder)
chain: MGSWFTFKDDLAQIKNRLEALGGSEAELANFEMSIAWFEFMLQYYKGKGNPEVEALRKEAAAIRDELQAYRHN
B11: SEQ ID NO 859 (designed binder)
chain: MGSWVLFKQDLAMIKQRLEALGGSEAELAMFEYDIAWFEHMLQYYKGKGNPEVEALRKEAAAIRDELQAYRHN
B12: SEQ ID NO 849 (designed binder)
chain: MGSWVYFKHRLAEIKDQLEALGGSEAELAEFETDIAWFEWMLQYYKGKGNPEVEALRKEAAAIRDELQAYRHN
B13: SEQ ID NO 856 (designed binder)
chain: MGSWYYFKERLAAIKDRLEALGGSEAELAIFEADIAWFEFMLQYYKGKGNPEVEALRKEAAAIRDELQAYRHN
B14: SEQ ID NO 866 (designed binder)
chain: MGSWAVFKDSLAHIKDVLEALGGSEAELALFEMDIAWFEYVLQDYKGKGNPEVEALRKEAAAIRDELQAYRHN
B15: SEQ ID NO 852 (designed binder)
chain: MGSWQIFKQDLAAIKDYLEALGGSEAELAIFEFDIAWFEHMLQWYKGKGNPEVEALRKEAAAIRDELQAYRHN
B16: SEQ ID NO 853 (designed binder)
chain: MGSWLAFKEDLAHIKSILEALGGSEAELAEFEHDIAWFEYMLQYYKGKGNPEVEALRKEAAAIRDELQAYRHN
B17: SEQ ID NO 860 (designed binder)
chain: MGSWVEFKRDLANIKQRLEALGGSEAELAQFEMQIAWFEHTLQYYKGKGNPEVEALRKEAAAIRDELQAYRHN
B18: SEQ ID NO 861 (designed binder)
chain: MGSWSYFKEDLANIKSSLEALGGSEAELAWFESSIAWFEHTLQYYKGKGNPEVEALRKEAAAIRDELQAYRHN
B19: SEQ ID NO 851 (designed binder)
chain: MGSWMHFKQDLAEIKGYLEALGGSEAELAIFEMDIAWFEYMLQYYKGKGNPEVEALRKEAAAIRDELQAYRHN
B20: SEQ ID NO 854 (designed binder)
chain: MGSWFVFKEDLAGIKFILEALGGSEAELAMFETDIAWFEYMLQYYKGKGNPEVEALRKEAAAIRDELQAYRHN
B21: SEQ ID NO 848 (designed binder)
chain: MGSWVYFKDHLAEIKSQLEALGGSEAELALFEYDIAWFEFILQYYKGKGNPEVEALRKEAAAIRDELQAYRHN
B22: SEQ ID NO 864 (designed binder)
chain: MGSWSIFKDDLAVIKERLEALGGSEAELAHFEQDIAWFEHLLQYYKGKGNPEVEALRKEAAAIRDELQAYRHN
B23: SEQ ID NO 867 (designed binder)
chain: MGSWIAFKDHLAIIKQRLEALGGSEAELARFEFEIAWFEWMLQYYKGKGNPEVEALRKEAAAIRDELQAYRHN
B24: SEQ ID NO 841 (designed binder)
chain: MGSWYFFKSRLAYIKVYLEALGGSEAELAGFEWEIAHFEEWLQRYKGKGNPEVEALRKEAAAIRDELQAYRHN
B25: SEQ ID NO 842 (designed binder)
chain: MGSWYIFKSELAWIKWYLEALGGSEAELANFEVEIATFETWLQGYKGKGNPEVEALRKEAAAIRDELQAYRHN
B26: SEQ ID NO 874 (designed binder)
chain: MGSWNNFKSSLASIKQVLEALGGSEAELAVFELQIAHFERELQYYKGKGNPEVEALRKEAAAIRDELQAYRHN
B27: SEQ ID NO 872 (designed binder)
chain: MGSWVVFKSSLAQIKILLEALGGSEAELAIFEVKIAHFEQELQEYKGKGNPEVEALRKEAAAIRDELQAYRHN
B28: SEQ ID NO 873 (designed binder)
chain: MGSWDQFKNSLASIKRVLEALGGSEAELAIFEVKIAHFEHFLQQYKGKGNPEVEALRKEAAAIRDELQAYRHN
B29: SEQ ID NO 846 (designed binder)
chain: MGSWYWFKYELAEIKWHLEALGGSEAELAHFEHSIAVFESQLQQYKGKGNPEVEALRKEAAAIRDELQAYRHN
B30: SEQ ID NO 868 (designed binder)
chain: MGSWIHFKNDLAVIKDELEALGGSEAELARFEIMIAWFEDALQWYKGKGNPEVEALRKEAAAIRDELQAYRHN
B31: SEQ ID NO 843 (designed binder)
chain: MGSWYIFKQELASIKLSLEALGGSEAELAHFEAEIAWFEWWLQWYKGKGNPEVEALRKEAAAIRDELQAYRHN
B32: SEQ ID NO 844 (designed binder)
chain: MGSWVRFKTELAYIKESLEALGGSEAELAMFESEIAIFEHSLQTYKGKGNPEVEALRKEAAAIRDELQAYRHN
B33: SEQ ID NO 847 (designed binder)
chain: MGSWWVFKKTLAEIKWTLEALGGSEAELAYFEAEIAFFEFILQQYKGKGNPEVEALRKEAAAIRDELQAYRHN
B34: SEQ ID NO 839 (designed binder)
chain: MGSWTLFKWDLAFIKWQLEALGGSEAELAWFEYEIAAFEDSLQNYKGKGNPEVEALRKEAAAIRDELQAYRHN
B35: SEQ ID NO 840 (designed binder)
chain: MGSWILFKEDLAFIKWQLEALGGSEAELAWFETTIANFESDLQKYKGKGNPEVEALRKEAAAIRDELQAYRHN
B36: SEQ ID NO 870 (designed binder)
chain: MGSWKNFKLELALIKSKLEALGGSEAELAQFEADIAFFEWSLQWYKGKGNPEVEALRKEAAAIRDELQAYRHN
B37: SEQ ID NO 869 (designed binder)
chain: MGSWMVFKQDLAEIKANLEALGGSEAELADFEFAIAWFEYELQWYKGKGNPEVEALRKEAAAIRDELQAYRHN

The first experiment addresses T1, recombinant human CD123-Fc. Nature of the experiment: phage ELISA, A450 target/A450 IgG1-Fc. Summed up: (§1)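 Phage were rescued in 96-well format with VCSM13 helper phage from individual phagemid colonies picked from panning output. Plates were coated with 1.3 microg/ml goat anti-human IgG1-Fc antibody, then 5 nM recombinant human target or IgG1-Fc, then 50 microl phage diluted 5× in ELISA blocking buffer. Binding was detected with HRP-conjugated anti-M13 antibody at 450 nm. The ELISA ratio is target over IgG1-Fc absorbance, averaged across all screened wells holding that clone.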
For orientation: ELISA stands for enzyme-linked immunosorbent assay.
As to B1, the ELISA_avg turned out to be 10.6 ratio.

A further experiment has as its target T2, AFP p26. Briefly: phage ELISA, A450 target/A450 IgG1-Fc. Summed up: as §1
With B2, the ELISA_avg worked out at 25.6 ratio. On the same count and under the same terms, the figure for B3 is 20.1 ratio; for B4 it is 30.4 ratio. B5 displayed an ELISA_avg of 32.3 ratio. Regarding B6, the ELISA_avg came to 30.3 ratio. On the same count and under the same terms, then B7, with 27.9 ratio; and B8, with 16.7 ratio.

As to B9, the ELISA_avg stood at 16.6 ratio. The same measure, in the same setting: then B10, with 30.8 ratio. The same measure, in the same setting: then B11, with 29.7 ratio; and B12, with 11.1 ratio.

As for B13, the ELISA_avg came to 31.5 ratio. Same read-out and setting: the figure for B14 is 24.1 ratio; for B15 it is 17.4 ratio. As for B16, the ELISA_avg stood at 18.6 ratio. The same measure, in the same setting: the figure for B17 is 30.4 ratio; for B18 it is 11.6 ratio; for B19 it is 18.9 ratio. The molecule B20 returned an ELISA_avg of 14.2 ratio. Same read-out and setting: then B21, with 22.1 ratio; and B22, with 25.6 ratio. On the same count and under the same terms, the figure for B23 is 29.9 ratio; for B24 it is 30.1 ratio. Consider B25, for which the ELISA_avg worked out at 29.6 ratio. On the same count and under the same terms, then B26, with 24.1 ratio. The same measure, in the same setting: then B27, with 8.6 ratio; and B28, with 15.6 ratio; and B29, with 21.5 ratio. With B30, the ELISA_avg turned out to be 17.9 ratio. The same measure, in the same setting: the figure for B31 is 19.4 ratio; for B32 it is 20.5 ratio; for B33 it is 18.6 ratio. The same measure, in the same setting: the figure for B34 is 12.1 ratio. On the same count and under the same terms, the figure for B35 is 23.3 ratio; for B36 it is 20.6 ratio. Take B37: the ELISA_avg stood at 17.8 ratio.

Values taken from patent US20230125550A1 (ARCELLX, published 2023).
